Experimental data as given in IntAct's records for PubMed 20030366.

Key:
apoe_human APOE = apoe_human APOE (UniProt P02649)
amrp_human LRPAP1 [1] = target: amrp_human LRPAP1 (UniProt P30533)
amrp_human LRPAP1 [2] = target: amrp_human LRPAP1 (UniProt P30533); remark: listed apart in the source

amrp_human LRPAP1, sequence (P30533 whole entry): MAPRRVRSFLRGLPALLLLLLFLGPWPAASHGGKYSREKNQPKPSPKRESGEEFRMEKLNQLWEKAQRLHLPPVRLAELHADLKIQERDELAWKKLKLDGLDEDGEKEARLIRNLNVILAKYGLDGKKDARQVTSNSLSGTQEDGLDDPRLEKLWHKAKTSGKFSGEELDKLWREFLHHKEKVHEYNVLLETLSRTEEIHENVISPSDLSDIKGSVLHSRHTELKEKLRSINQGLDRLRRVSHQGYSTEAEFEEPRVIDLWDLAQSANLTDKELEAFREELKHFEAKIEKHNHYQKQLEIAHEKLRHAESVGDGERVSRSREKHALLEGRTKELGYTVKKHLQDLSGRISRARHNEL
apoe_human APOE, sequence (P02649 whole entry): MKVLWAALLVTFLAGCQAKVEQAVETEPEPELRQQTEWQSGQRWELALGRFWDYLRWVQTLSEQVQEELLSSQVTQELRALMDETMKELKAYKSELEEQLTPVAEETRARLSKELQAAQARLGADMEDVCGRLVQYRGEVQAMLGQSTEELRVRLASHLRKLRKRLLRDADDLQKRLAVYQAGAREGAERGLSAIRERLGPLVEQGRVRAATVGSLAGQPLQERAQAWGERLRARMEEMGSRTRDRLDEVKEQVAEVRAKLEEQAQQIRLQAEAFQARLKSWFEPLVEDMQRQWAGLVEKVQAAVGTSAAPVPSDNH

| effect of a mutation on the interaction (apoe_human APOE) | effect of a mutation on the interaction (amrp_human LRPAP1 [1]) | effect of a mutation on the interaction (amrp_human LRPAP1 [2]) | Substance |
| --- | --- | --- | --- |
| decreasing interaction strength | decreasing interaction strength |  | Prolow-density lipoprotein receptor-related protein 1 (Homo sapiens), Q07954 D2797A |
|  |  | decreasing interaction strength | Prolow-density lipoprotein receptor-related protein 1 (Homo sapiens), Q07954 D2797A;D2840A |
